The results in this text go back to PMC7390762.

This experiment deals with N-utilization substance (Nus) G, Escherichia coli (E. coli) (UniProt P0AFG0). Briefly: cryo-EM structure.

As usually defined, the stoichiometry N is a count of units in the complex or per binding partner.

Chain of UniProt P0AFG0 (P0AFG0 whole entry): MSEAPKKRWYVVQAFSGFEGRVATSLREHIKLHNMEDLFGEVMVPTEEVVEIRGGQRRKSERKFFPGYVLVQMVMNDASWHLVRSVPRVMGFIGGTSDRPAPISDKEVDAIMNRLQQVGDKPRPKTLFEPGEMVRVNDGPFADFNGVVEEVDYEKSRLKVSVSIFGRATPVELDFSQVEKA

Consider “70S ribosome (E. coli), intact (from UniProt P0A7R5 5-102) (complex)”, for which the percent of particles with extra density at S10 was found to be 5% and the stoichiometry N was determined as 1.
